The text below walks through data of article PMC6509284, “Aurora B-INCENP Localization at Centromeres/Inner Kinetochores Is Required for Chromosome Bi-orientation in Budding Yeast” (Current Biology, 2019).

This test concerns the target T1, recombinant COMA (Ctf19-Okp1-Mcm21-Ame1) inner kinetochore sub-complex (budding yeast (S. cerevisiae), UniProt P53298 1-406; P38313 1-324; Q02732 1-369; Q06675 1-368).
T1 construct: Okp1, budding yeast, essential COMA component; His-Okp1 printed as 49 kDa; Ame1, budding yeast, essential COMA component; printed as 37 kDa; Ctf19, budding yeast, non-essential COMA component; 'coding regions' cloned; printed as 43 kDa; Mcm21, budding yeast, non-essential COMA component; also called COMA components; source: E. coli RosettaGami2(DE3)pLysS, four subunits co-expressed, purified …
Put plainly: pull-down; GST fusion proteins incubated with purified COMA in 50 mM HEPES-NaOH pH 7.4, 150 mM NaCl, 5% glycerol, 0.05% Igepal, 2 mM DTT, 0.5 mM EDTA, 20 min at 4°C, then 1 h on GST-Trap Agarose at 4°C, three washes; Coomassie blue staining, anti-His western blot and mass spectrometry. To be noted: both partners purified.

T1 sequence (P53298 whole entry, chain 1 of 4): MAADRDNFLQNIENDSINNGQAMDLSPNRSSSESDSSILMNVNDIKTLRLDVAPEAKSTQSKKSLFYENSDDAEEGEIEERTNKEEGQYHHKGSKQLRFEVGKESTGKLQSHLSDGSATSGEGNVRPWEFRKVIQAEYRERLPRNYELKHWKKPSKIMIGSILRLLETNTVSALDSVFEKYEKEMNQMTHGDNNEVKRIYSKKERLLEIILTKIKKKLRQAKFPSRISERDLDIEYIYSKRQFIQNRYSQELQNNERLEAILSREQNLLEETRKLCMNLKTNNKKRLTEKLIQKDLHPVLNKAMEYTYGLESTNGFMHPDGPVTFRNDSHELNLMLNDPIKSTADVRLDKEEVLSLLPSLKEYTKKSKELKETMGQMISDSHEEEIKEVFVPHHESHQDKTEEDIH
T1 sequence (P38313 whole entry, chain 2 of 4): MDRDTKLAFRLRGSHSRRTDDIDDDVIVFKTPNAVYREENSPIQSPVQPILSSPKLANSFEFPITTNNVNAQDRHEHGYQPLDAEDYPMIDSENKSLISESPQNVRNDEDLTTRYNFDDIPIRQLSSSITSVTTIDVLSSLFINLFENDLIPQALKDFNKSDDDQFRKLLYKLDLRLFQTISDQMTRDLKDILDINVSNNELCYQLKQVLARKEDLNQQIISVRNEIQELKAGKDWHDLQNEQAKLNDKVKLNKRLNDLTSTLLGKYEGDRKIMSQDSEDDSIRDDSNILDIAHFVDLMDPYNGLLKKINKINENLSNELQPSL
T1 sequence (Q02732 whole entry, chain 3 of 4): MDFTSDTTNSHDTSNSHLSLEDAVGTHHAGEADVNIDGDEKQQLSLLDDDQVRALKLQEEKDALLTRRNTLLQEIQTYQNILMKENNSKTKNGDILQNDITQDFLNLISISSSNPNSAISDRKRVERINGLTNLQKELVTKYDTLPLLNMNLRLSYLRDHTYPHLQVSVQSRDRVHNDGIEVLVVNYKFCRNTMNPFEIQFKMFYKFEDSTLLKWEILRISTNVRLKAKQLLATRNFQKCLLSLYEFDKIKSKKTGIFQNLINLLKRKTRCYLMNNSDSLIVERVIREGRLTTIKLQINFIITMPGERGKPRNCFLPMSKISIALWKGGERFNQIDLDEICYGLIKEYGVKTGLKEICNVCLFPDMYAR
T1 sequence (Q06675 whole entry, chain 4 of 4): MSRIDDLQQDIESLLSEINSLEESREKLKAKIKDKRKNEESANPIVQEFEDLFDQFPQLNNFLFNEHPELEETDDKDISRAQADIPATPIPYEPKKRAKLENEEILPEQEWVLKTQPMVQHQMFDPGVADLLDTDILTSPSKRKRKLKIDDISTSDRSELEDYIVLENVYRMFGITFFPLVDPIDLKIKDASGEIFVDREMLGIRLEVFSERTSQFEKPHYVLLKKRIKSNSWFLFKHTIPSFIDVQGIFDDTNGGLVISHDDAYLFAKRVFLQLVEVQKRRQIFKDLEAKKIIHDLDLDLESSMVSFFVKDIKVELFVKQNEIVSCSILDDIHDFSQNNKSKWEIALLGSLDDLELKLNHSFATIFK

B1: GST-Sli15 (393-698 aa) (domain or fragment, budding yeast (S. cerevisiae), UniProt P38283 393-698, looked up)
chain: KLTTHKKLAIIAEQKKKSKHSSDVHKTGSRPHSISPTKISVDSSSPSKEVKNYYQSPVRGYLRPTKASISPNKNKNLTTSQTPHRLKIKEKTLRKLSPNIADISKPESRKSKNYRLTNLQLLPPAEAERDDLKKKFDKRLSGIMRSQQEHHRRKQEKQKRMSHLEQDLKKQTSFSNDYKDIRLKESLAPFDNHVRDTINKNTAFSTDNILATINTVDHREIIGNVTPKIASVNDSLPEINTDSEDEASVTLAAWAKSPYLQEQLIRQQDINPQTIFGPIPPLHTDEIFPNPRLNRLKPRQIVPKRS
notes: Sli15 (yeast INCENP), budding yeast, residues 393-698; Printed size 60 kDa; also called pGEX6P-1-GST-SLI15 (393-698); source: E. coli RosettaGami2, purified (GSTrap FF, Superdex 200)
Consider B1, for which the binding result was “binds”.

B2: GST-Sli15 (1-401 aa) (domain or fragment, budding yeast (S. cerevisiae), UniProt P38283 1-401, looked up)
chain: MDWAIKAARKKTQRKPGSTRSIIETLDDLNNLTTDAHSEINQRLYESSEWLRNNVYMNTLKYEDKKMEESLISPENTHNKMDVEFPKMKGEYELSNSQNDAAKDVTKTPRNGLHNDKSITPKSLRRKEVTEGMNRFSIHDTNKSPVEPLNSVKVDANESEKSSPWSPYKVEKVLRESSKTSESPINTKRFDNQTWAAKEEMENEPILQALKKAESVKVKPPPNSGIARSQRRSNMFVPLPNKDPLIIQHIPPTKSSGSIPKVRTVKESPIAFKKKSTINSPAIRAVENSDTAGSTKASSVFDRLSSIPTKSFENKISRGNVGHKYSSSSIDLTGSPMKKVSQKFKSINSTDTDMQEALRDIFSVKNKITKNNSPKGKNSRKSSIPRFDKTSLKLTTHKKLA
notes: Printed size 72 kDa; source: E. coli RosettaGami2, purified (GSTrap FF, Superdex 200)
As for B2, the binding result is reported as “binds”.
